Results: the DeepSol protein solubility set

Experiment: soluble on expression in E. coli; label from the status in PepcDB or PDB records

Soluble on expression in E. coli, not soluble:
MGSDKIHHHHHHMSADKYEVIIIGAGLAGLSAAYKLAKAGMEVVVVERGDYPGSKNLSGGVLYSRILDQLIPDFWEEAPIERYITNYLTTLMTPTDYVNIEYKDQELAKPPYNAVTVLRAKFDRWLAEKAEEAGAMIVTGVKVDKVLKEGGRITGITTGDEEMLADVVIAADGINSFIAQEAGLRGEIEPAHLAVGAKALIELPQQAIEERFRLEGNEGTAYAMLGDATHGVAGGGFFYTNRESLSIGVVMRLDDLVKEKVKPFEVLDDLLRHPLVAPLVKDGTMTEYGAHLTAEGGVHMVPSQLHTDGMLIVGDAAGFTINSGLVIRGMDLAIGSGMAAAEAVLEAKERGDYSAAALSSYQRKLDEGFIMKDLKLYAKAVDFMETDRLYKNYAPLANHLFGRIYNHDLSPKEHLWKSVLGSVQESGISWLDLARDGIKGVRAL, MGSDKIHHHHHHMSAGLTGIRVAVIGGDDREIYMIPELQKLGAYIVGVGFEKAAPIQGVTLLSSPLEAVEKADVLLFPMYGTDERGDVKAKYSETPIVLNKELLKAVSPKVPLFIGWARPALKSAAEMLGIQIVETANLDQLAILNSIPSAEGAIQMAMEASPITIHGSESFVLGLGRCGWTLARTLKGMGAHVTGVARKPADLARALEMGLEAVHFADLDEKIGKAELIFNTVPHLILDKVMLEQVNHEAVIIDIASLPGGTDFEYAKAKGIKAMLAPGLPGKVAPKAAGKILAQVYPQLILRHLTTKNASLKF, MGSDKIHHHHHHMSAKQYDTLNNAEITSLAHRALACYPAALQGEVRLLCRSENATFLVTSAGKRYALRLHRSHYHQKAEIESELLWLDALRETGIVVPEAVRDASGERVQSLGLSDGSCRYAVLFHWIDGEMPTTSIDPRTFQQLGEITAHLHQHSRQWQKPDGFQRIVWDHHTMVSAQSHWGSWRDAPNLSRDEHGIVEEAIERMGTEMAEFGKAPHRYGLIHADLRLTNLLLHRGETRVIDFDDCGMGWYLHDLAAAISFVEHHPRAAEWVENWLCGYERVAHVSDEELALLPTLLIQRRIQLTAWVGSHAETEMAQSLGPDWASHSVRLCRRYLETRDLPLGVA, MGSDKIHHHHHHMSAPQAMKVLVLCGPESSGKSWLSGVIQAHFGGLVVGEYVRHFIDQQCRDTCYADIPAIARGQLAWEDRAREQAPPLLILDTHLLSNMLWSHALFGDCPTWLEEALLARRYDLHLLLSPQGVDWIADGQRCQPDLSDRQRFFDDSQAWLRRHNQPHQILDGNWPQRQLLALQSVAKLLNSDAPSCPTEC, MGSDKIHHHHHHMSDALLNAGRQTLMLELQEASRLPERLGDDFVRAANIIIHCEGKVIVSGIGKSGHIGKKIAATLASTGTPAFFVHPAEALHGDLGMIESRDVMLFISYSGGAKELDLIIPRLEDKSVALLAMTGKLHSPLGRAAKAVLDISVEREACPMHLAPTSSTVNTLMMGDALAMAVMQARGFNEEDFARSHPAGALGARLLNNVHHLMRQGDAIPQVMLATSVMDAMLELSRTGLGLVAVCDEQHVVKGVFTDGDLRRWLVGGGALTTPVSEAMTPNGITLQAQSRAIDAKELLMKRKITAAPVVDENGKLTGAINLQDFYQAGII, MGSDKIHHHHHHMSDFHHGVQVVEINDGTRVISTVSTAIIGMVCTASDADAATFPLNKPALITSVQSAIAKAGTKGTLAASLQAIADQSKPVIVVVRVAEGTGDDAEAQTISNIIGGTDESGNYTGLKALLTAEAVTGVKPRILGVPGLDSLEVATALAPICQKLRAFGYISAWDCQNISEAMLYRENFSQRELMVIWPDFLAWDTTANATETVWATARALGLRAKIDQDTGWHKTLSNVGVNGVTGISASVFWDLQESGTDADLLNEAGVTTLIRKDGFRFWGNRCCSDDPLFLFENYTRTAQVIADTMAAGHMWAVDKPITATLIKDIVAGINAKFREMKTAGYIVDATCWFDESANDAATLKAGKLYIDYDYTPVPPLENLTLRQRITDKYLANLVSSVNSN, MGSDKIHHHHHHMSDIKFNSMTHFEAVARLGGVAKAAQELQVTPSAVSQQLRLLEHQLGVRLFQREKRHLSLTIDGERLFQTTTQAFESIREVRNAIVRQRESFQLSLRVSPSFGEKWLAPRLAEFSKDYPSWNLRVDATPNFSDFETEVIDLDLRYGDGGWAGLYSDCVVNDLILPMCSPSYLAELRGLSVDPREQLGHARLIDSVKAYFRWDYWLPRNGIQGARMTYPYRFDRSSMSVQLAKDGAGVVLESTTIAFEDLVSGSLVPVSTEFDVIEFPGYWLVCPSRHMNRRAVRLFSDWVSRVGQRDTDRARQFLSESGLHISFERRPHFGTPDDRAATML, MGSDKIHHHHHHMSDVSPARALGIDFGTSNSTVGWHRPGVESLIALEDGKITLPSVVFFNIEERRPVYGRLALHEYLEGYEGRLMRSLKSLLGSKLIKHDTSVLGSALPFKDLLGMFIGELKKRAEAAAGREFDQVVLGRPVFFVDEDPAADQEAEDTLAEVARKIGFKDVSFQYEPIAAAFDYESSISREELVLIVDIGGGTSDFTLIRLSPERHLVAERQSDILATGGVHIGGTDFDKQLSLQGVMPLFGYGSRMKSGALMPTSYHLNLATWHTINALYSQKSQLALGSMRYDIEDSFGIDRLFKLIEQRAGHWLAMEVEASKIELTEHDSRHIDLRRVEPELTAELTRTLFEEAIEGLLERVRGSVTELLAKAGVSEGQVDTVFFTGGSSGIPALRNSVSAMLPNARHVEGNIFGSIGSGLAIEARKRYGAA, MGSDKIHHHHHHMSEKQQILDYIETNKYSYIEISHRIHERPELGNEEIFASRTLIDRLKEHDFEIETEIAGHATGFIATYDSGLDGPAIGFLAEYDALPGLGHACGHNIIGTASVLGAIGLKQVIDQIGGKVVVLGCPAEEGGENGSAKASYVKAGVIDQIDIALMIHPGNETYKTIDTLAVDVLDVKFYGKSAHASENADEALNALDAMISYFNGVAQLRQHIKKDQRVHGVILDGGKAANIIPDYTHARFYTRAMTRKELDILTEKVNQIARGAAIQTGCDYEFGPIQNGVNEFIKTPKLDDLFAKYAEEVGEAVIDDDFGYGSTDTGNVSHVVPTIHPHIKIGSRNLVGHTHRFREAAASVHGDEALIKGAKIMALMGLELITNQDVYQDIIEEHAHLKGNGK, MGSDKIHHHHHHMSELTQLFPQPLWQWFAQICAIPHPSKHEQALSLHIQQWAKDKGLSVIEDKVGNLIIKKPAFAGMEDRKKVVLQAHLDMVPQKNADKVHNFETDPIEAYIDGDWVKAKGTTLGSDNGIGMASALAILGSDSIKHGPLEVLLTIDEEAGMTGAFGLEAGMLEAEILINTDSEQEGEIYMGCAGGVDGQISLPMSWQSPEQSNSSFNLTLSGLKGGHSGVNIHLGRGNANKLLARFLFDYADDLALELVSFSGGSLRNAIPREASISFMLPPENLTALNQAIADFQALVREELAIADPGMLLTLVEVPAHTKVMGEDSQNTLIDLLHVCPNGVIRMSDEVEGVTETSLNVGVISTHDDSVEILCLIRSLIDSGRSEVTGMITALTHLAGADVEFSGAYPGWKPDTSSPVMAIVRETYNDIYHKDPTVMVIHAGLECGLFKEPYPAMDMVSIGPTIRYPHSPDEMVNITTVGQYWQLLLAVLERIPVRG, MGSDKIHHHHHHMSENEQLSATYELLHADAASPVMISLPHSGTWIPADMRKHLLPTAVLANTDWFLPALYDFLPQTGFTTLINRVNRYVADPNRAVTLDLDHDYRSATIYQRNTFNHPLYARPLPPETLQSRLRTYYWPYRHALTMILKQKQAKFGHAYLIDLHSFAQYPHYPGIKPKTIVLGNDHDRTTSKIFRQTLSAAFVAHDFTVENNFPFRGGDITRYYGHQPNITAIQIELRYDQYIDQRSFREEVLTRHQTDLFCKAQDRLRFLRDFLKQLR, MGSDKIHHHHHHMSESLPPDAQRSPSYRAGVGLKAEHYRTILESQPDIGFFEVHAENYMGAGGPPHRFLSAIRESYPLSLHGVGLSIGADRPLDRDHLQRLKELIARYSPALFSEHLAWSSHDCGFLNDLLPVPYTAESLTRIVDHIDQVQEVLGRQMLLENPSTYLAFEESTYPEIDFIAAVVRRTGCGLLLDVNNVYVASINQQWDPFAYIDEYPLAAVQEIHLAGHAEETDEKARPLLIDSHDRHVADVVWDLYARAIRGTGPIPTLIEWDANIPDWPTLKAEAGRADAVVQAATQPASVDHVTIRSQFDMTRRRLKEAQTL, MGSDKIHHHHHHMSFSGFEQFIGLVANRYGKPGTPHSEEQHSDYEAGTVLLGSETWHIRTARVTPTKPGAFVAFWMRNEQGEICPFDSSEACAGLLIFVQDESNFGVFRFTREQLEQQGITRSTKRPGKRGFRVYPSWSGNLNAQAKKTQAIQTPSFELLQ
